Measured values published in patent publication US6328728A, “Composition and method for enhancing electrotransport agent delivery” (Alza Corporation, priority 1997, dated 2001).

Assay: Measurement of circular dichroism (mean residue ellipticity at 222 nm)
Format: physicochemical
Conditions: for Ellipticity (mean residue at 222 nm) / Ellipticity (mean residue) (222 nm), raw / Ellipticity (mean residue) (222 nm), raw value: 32° C.
Source text: In general, the structure of a polypeptide in an aqueous buffered solution is in constant flux between portions thereof being random coil and alpha-helix configurations. For the polypeptides used in the following examples, the predominant structure is a random coil since the alpha-helix configuration is unstable in the absence of bound surfactant. According to the present invention adding surfactant to an aqueous solution of a polypeptide stabilizes the alpha-helix configuration. Circular dichroism is a measurement of the amount of the alpha-helix configured polypeptide present in the solution. Thus, circular dichroism provides an indirect measurement of the degree of binding of the surfactant to the polypeptide. (See, for example, Epand R. M., Epand R. F., Orlowski R. C., Schuleter R. J., Boni L. T. and Hui S. W., Biochemistry 22, 5074-5084 (1983); Hui, S. W., Epand R. M., Dell K. R., Epand R. F. and Orlowski R. C., Biochimica Biophysica Acta 772, 264-272 (1984); Epand R. M., Epand R. F., and Orlowski R. C., International Journal Peptide Protein Research 25 105-111; Epand R. M., Epand R. F., Orlowski R. C., Seyler J. K. and Colescott R. L., Biochemistry 25, 1964-1968; Epand R. M., Seyler J. K. and Orlowski R. C., European Journal Biochemistry 159, 125-127 (1986); Wiersema P. H., Loeb A. L. and Overbeek, J., Colloid Interface Science 22, 78-99 (1966)).
The surfactant/peptide circular dichroism (CD) spectra were obtained in a 2 mm path-length cell (110-Q-2 Model, AVIV, Lakewood, N.J.) at 32° C. The cell was initially loaded with 0.60 mL of a solution containing about 0.25 mg/mL of the peptide in 10 mM sodium chloroacetate (pH 3.5) or 10 mM sodium borate (pH 9.0). The buffers were selected to minimize the effect of the temperature on the pH of the solution and to minimize light absorption, thereby optimizing the signal-to-noise ratio (SNR). The peptide concentration was determined by spectrophotometry, with log-log correction for light scattering. The surfactant concentration was increased step-wise by titration of concentrated surfactant stock directly into the CD cell, followed by eight inversions of the cell, with the air bubble providing the mixing turbulence. After mixing, the cell was placed into the AVIV 62 CD spectrometer (AVIV, Lakewood, N.J.). In order to approximate temperature and chemical equilibrium, the sample remained in the spectrometer 5 minutes before a reading was taken. The CD spectrum was taken using a band pass of 1 nm, a data interval of 1 nm, and a data averaging time of 10 seconds. The mean residue ellipticity is the ellipticity divided by the path length in cm times the amino acid residue concentration in decimoles/cm^3. See Methods in Enzymology, Vol 130, pp 208-269, Yang et al, "Calculation of Protein Conformation from Circular Dichroism" (1986).
The measurement procedures described above were conducted on an aqueous solution of the protein insulinotropin, with TWEEN® 20 (MW=1126 g/mol) as the surfactant, with the following modifications. The insulinotropin donor solution concentration was 0.12 mg/mL. One test was run in 10 mM sodium borate at pH 9.0 and another test in 10 mM sodium chloroacetate at pH 3.5.
Fractional changes (%δ) are defined as the difference between the reading at a given surfactant concentration (Ec) minus the reading at zero surfactant (E0), the quantity divided by the difference between the reading at saturated surfactant concentration (Es) minus the reading at zero surfactant (E0), i. e. %δ=(Ec -E0)/(Es-E0).
The measurement procedures described earlier were conducted on an aqueous solution of insulinotropin as the agent, and TWEEN® 40 (molecular weight 1282 g/mol) as the surfactant with the following changes. The insulinotropin concentration was initially 0.29 mg/mL, and 0.21 mg/mL after the final TWEEN® 40 addition and the temperature was held at 32° C. Two tests were conducted at two different concentrations of TWEEN® 40. […]

[1] = pH 3.5, 10 mM sodium chloroacetate, TWEEN 20 0
[2] = pH 3.5, 10 mM sodium chloroacetate, TWEEN 20 0.133 mM
[3] = pH 3.5, 10 mM sodium chloroacetate, TWEEN 20 0.266 mM
[4] = pH 9.0, 10 mM sodium borate, TWEEN 20 0
[5] = pH 9.0, 10 mM sodium borate, TWEEN 20 0.133 mM
[6] = pH 9.0, 10 mM sodium borate, TWEEN 20 0.266 mM
[7] = pH 9.0, 10 mM sodium borate, TWEEN 20 0.515 mM
[8] = pH 9.0, 10 mM sodium borate, TWEEN 20 1.00 mM
[9] = pH 9.0, 10 mM sodium borate, TWEEN 20 1.67 mM
[10] = pH 9.0, 10 mM sodium borate, TWEEN 20 2.56 mM
[11] = pH 9.0, 10 mM sodium borate, TWEEN 20 2.66 mM
[12] = pH 9.0, 10 mM sodium borate, TWEEN 20 4.00 mM
[13] = pH 9.0, 10 mM sodium borate, TWEEN 20 5.00 mM
[14] = pH 9.0, 10 mM sodium borate, TWEEN 20 7.04 mM
[15] = pH 9.0, 10 mM sodium borate, TWEEN 20 7.26 mM
[16] = pH 9.0, 10 mM sodium borate, TWEEN 20 9.41 mM
[17] = pH 9.0, 10 mM sodium borate, TWEEN 20 12.3 mM
[18] = pH 9.0, 10 mM sodium borate, TWEEN 20 17.7 mM
[19] = pH 9.0, 10 mM sodium borate, TWEEN 20 20.0 mM
[20] = pH 9.0, 10 mM sodium borate, TWEEN 20 22.1 mM

In the case of “Insulinotropin: the protein insulinotropin”, the “Ellipticity (mean residue at 222 nm)” value (pH 3.5, 10 mM sodium chloroacetate, DTAC 0) is reported as -4268 deg-cm^2 /dmol, the “Ellipticity (mean residue at 222 nm)” value (pH 3.5, 10 mM sodium chloroacetate, DTAC 0.83 mM) is reported as -5182 deg-cm^2 /dmol and the “Ellipticity (mean residue at 222 nm)” value (pH 3.5, 10 mM sodium chloroacetate, DTAC 1.64 mM) is reported as -7285 deg-cm^2 /dmol. For the same substance, the “Ellipticity (mean residue at 222 nm)” value (pH 3.5, 10 mM sodium chloroacetate, DTAC 3.23 mM) was -9863 deg-cm^2 /dmol, the “Ellipticity (mean residue at 222 nm)” value (pH 3.5, 10 mM sodium chloroacetate, DTAC 5.51 mM) was -11672 deg-cm^2 /dmol and the “Ellipticity (mean residue at 222 nm)” value (pH 3.5, 10 mM sodium chloroacetate, DTAC 9.10 mM) was -11951 deg-cm^2 /dmol. The “Ellipticity (mean residue at 222 nm)” value (pH 3.5, 10 mM sodium chloroacetate, DTAC 13.0 mM) was -12219 deg-cm^2 /dmol, the “Ellipticity (mean residue at 222 nm)” value (pH 3.5, 10 mM sodium chloroacetate, DTAC 25.0 mM) was -12326 deg-cm^2 /dmol and the “Ellipticity (mean residue) (222 nm), raw” value [1] was -4877. The “Ellipticity (mean residue) (222 nm), raw” value [2] was -7087, the “Ellipticity (mean residue) (222 nm), raw” value [3] was -8437 and the “Ellipticity (mean residue at 222 nm)” value (pH 3.5, 10 mM sodium chloroacetate, TWEEN 40 0) was -4621 deg-cm^2 /dmol. For the same substance, the “Ellipticity (mean residue at 222 nm)” value (pH 3.5, 10 mM sodium chloroacetate, TWEEN 40 0.025 mM) was -4997 deg-cm^2 /dmol, the “Ellipticity (mean residue at 222 nm)” value (pH 3.5, 10 mM sodium chloroacetate, TWEEN 40 0.092 mM) was -6045 deg-cm^2 /dmol and the “Ellipticity (mean residue at 222 nm)” value (pH 3.5, 10 mM sodium chloroacetate, TWEEN 40 0.214 mM) was -7317 deg-cm^2 /dmol. For the same substance, the “Ellipticity (mean residue at 222 nm)” value (pH 3.5, 10 mM sodium chloroacetate, TWEEN 40 0.390 mM) was -8554 deg-cm^2 /dmol, the “Ellipticity (mean residue at 222 nm)” value (pH 3.5, 10 mM sodium chloroacetate, TWEEN 40 0.718 mM) was -10379 deg-cm^2 /dmol and the “Ellipticity (mean residue at 222 nm)” value (pH 3.5, 10 mM sodium chloroacetate, TWEEN 40 1.21 mM) was -12282 deg-cm^2 /dmol. For the same substance, the “Ellipticity (mean residue at 222 nm)” value (pH 3.5, 10 mM sodium chloroacetate, TWEEN 40 2.06 mM) was -14017 deg-cm^2 /dmol, the “Ellipticity, fractional change (% δ)” value [1] was 0 and the “Ellipticity, fractional change (% δ)” value [2] was 0.21. For the same substance, the “Ellipticity, fractional change (% δ)” value [3] was 0.34, the “Ellipticity, fractional change (% δ)” value (pH 3.5, 10 mM sodium chloroacetate, TWEEN 20 0.515 mM) was 0.58 and the “Ellipticity, fractional change (% δ)” value (pH 3.5, 10 mM sodium chloroacetate, TWEEN 20 1.00 mM) was 0.59. For the same substance, the “Ellipticity, fractional change (% δ)” value (pH 3.5, 10 mM sodium chloroacetate, TWEEN 20 1.67 mM) was 0.91, the “Ellipticity, fractional change (% δ)” value (pH 3.5, 10 mM sodium chloroacetate, TWEEN 20 2.28 mM) was 0.96 and the “Ellipticity, fractional change (% δ)” value (pH 3.5, 10 mM sodium chloroacetate, TWEEN 20 3.20 mM) was 0.97. For the same substance, the “Ellipticity, fractional change (% δ)” value (pH 3.5, 10 mM sodium chloroacetate, TWEEN 20 4.44 mM) was 1.00, the “Ellipticity (mean residue) (222 nm), raw value” (“Ellipticity … raw value” below) [4] was -5010 and the “Ellipticity … raw value” [5] was -5641. For the same substance, the “Ellipticity … raw value” [6] was -6252, the “Ellipticity … raw value” [7] was -6553 and the “Ellipticity … raw value” [8] was -7050. The “Ellipticity … raw value” [9] was -7857, the “Ellipticity … raw value” [10] was -7915 and the “Ellipticity … raw value” [11] was -8970. The “Ellipticity … raw value” [12] was -9165, the “Ellipticity … raw value” [13] was -9124 and the “Ellipticity … raw value” [14] was -10288. The “Ellipticity … raw value” [15] was -9702, the “Ellipticity … raw value” [16] was -10451 and the “Ellipticity … raw value” [17] was -10540. For the same substance, the “Ellipticity … raw value” [18] was -10709, the “Ellipticity … raw value” [19] was -10876 and the “Ellipticity … raw value” [20] was -10872. The “Ellipticity, fractional change (% δ)” value [4] was 0, the “Ellipticity, fractional change (% δ)” value [5] was “.11” and the “Ellipticity, fractional change (% δ)” value [6] was “.21”. The “Ellipticity, fractional change (% δ)” value [7] was “.26”, the “Ellipticity, fractional change (% δ)” value [8] was “.35” and the “Ellipticity, fractional change (% δ)” value [9] was “.49”. The “Ellipticity, fractional change (% δ)” value [10] was “.50”, the “Ellipticity, fractional change (% δ)” value [11] was “.68” and the “Ellipticity, fractional change (% δ)” value [12] was “.71”. For the same substance, the “Ellipticity, fractional change (% δ)” value [13] was “.70”, the “Ellipticity, fractional change (% δ)” value [14] was “.90” and the “Ellipticity, fractional change (% δ)” value [15] was “.80”. For the same substance, the “Ellipticity, fractional change (% δ)” value [16] was “.92”, the “Ellipticity, fractional change (% δ)” value [17] was “.94” and the “Ellipticity, fractional change (% δ)” value [18] was “.97”. The “Ellipticity, fractional change (% δ)” value [19] was 1.00 and the “Ellipticity, fractional change (% δ)” value [20] was 1.00.
